System: 3-phosphoglycerate dehydrogenase (PGD)
Assay: assay of PGD activity (relative catalytic activity)
Format: biochemical, E. coli
Excerpt: While not critical to the invention, the assay of PGD activity is generally necessary in order to establish the degree of serine sensitivity of the altered enzyme. As is well known in the art, enzyme activity is a function of the total number of enzyme molecules and the catalytic activity of each molecule. Thus, in comparing the catalytic activity of PGD feedback variants, steps must be taken to adequately control for the relative number of PGD molecules for samples in which relative catalytic activity is to be compared. There are a number of ways in which this may be accomplished. However, since it is difficult to adequately establish the level of gene expression in cells transformed with truncated serA genes (due to decreased viability), the most suitable way to compare PGD activity produced from various constructs and the wild type is to chromosomally integrate the altered serA gene containing standard regulatory elements in a single copy, followed by harvesting the transformants and determination of the relative catalytic activity as compared to PGD from wild type cells.
Any method suitable for the measurement of PGD activity may be employed. PGD activity may be measured through detection of either the forward or the reverse reaction by the method of John C. McKitrick and Lewis I. Pizer, J. Bacteriol., 141:235-245 (1980). […]

B1: WT: wild-type E. coli 3-phosphoglycerate dehydrogenase (serA), C-terminal sequence SEQ ID NO: 2 (protein, UniProt P0A9T0 2-410, looked up)
D-3-phosphoglycerate …: AKVSLEKDKIKFLLVEGVHQKALESLRAAGYTNIEFHKGALDDEQLKESIRDAHFIGLRSRTHLTEDVINAAEKLVAIGCFCIGTNQVDLDAAAKRGIPVFNAPFSNTRSVAELVIGELLLLLRGVPEANAKAHRGVWNKLAAGSFEARGKKLGIIGYGHIGTQLGILAESLGMYVYFYDIENKLPLGNATQVQHLSDLLNMSDVVSLHVPENPSTKNMMGAKEISLMKPGSLLINASRGTVVDIPALCDALASKHLAGAAIDVFPTEPATNSDPFTSPLCEFDNVLLTPHIGGSTQEAQENIGLEVAGKLIKYSDNGSTLSAVNFPEVSLPLHGGRRLMHIHENRPGVLTALNKIFAEQGVNIAAQYLQTSAQMGYVVIDIEADEDVAEKALQAMKAIPGTIRARLLY
- Units (relative catalytic activity) (Table 1, following chromosomal integration of the construct): 0.05 Units
- Units (Table 1A, wildtype and mutated serA alleles): 0.05 Units
